Our source for the stoichiometry N and binding values is article PMC12609908.

As usually defined, the stoichiometry N is a count of units in the complex or per binding partner.

Series [1] concerns the target CutR, LysR-type transcriptional regulator from Mycobacterium sp. strain JC1 (native protein) (Mycobacterium sp. strain JC1). The experiment in a line: SEC; Superdex G-75 column, 20 mM Tris-HCl pH 7.5, 500 mM NaCl, 5 mM beta-mercaptoethanol; size standards conalbumin, ovalbumin, carbonic anhydrase, ribonuclease A, aprotinin. A general note: Size exclusion chromatography separates by hydrodynamic size, large species first.

Series [2] has as its target T1, CutR (Mycobacterium sp. strain JC1) (UniProt D5G1X9).
T1 sequence: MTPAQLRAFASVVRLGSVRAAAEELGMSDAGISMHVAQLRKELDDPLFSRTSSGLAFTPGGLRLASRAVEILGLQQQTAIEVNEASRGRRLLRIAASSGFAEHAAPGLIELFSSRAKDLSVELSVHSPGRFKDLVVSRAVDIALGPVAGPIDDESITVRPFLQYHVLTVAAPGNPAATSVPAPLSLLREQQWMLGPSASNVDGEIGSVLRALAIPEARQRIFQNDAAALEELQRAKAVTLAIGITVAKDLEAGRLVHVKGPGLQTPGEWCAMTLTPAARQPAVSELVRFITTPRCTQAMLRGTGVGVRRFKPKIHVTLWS
In words: EMSA. To be noted: 50 mM Tris-HCl pH 8.0, 100 mM NaCl, 40% glycerol, 5 mM DTT, 2 mM EDTA, 4 °C 1 h; 10% native PAGE in 0.5x TBE at 4 °C.

Substance “CutR, LysR-type transcriptional regulator from Mycobacterium sp. strain JC1 (native protein) (natural protein)” showed a stoichiometry N in series [1] of 2.

Consider “ACCCCGAGTTAAGTGATTCCTTAACTCGCTATTGACGCCATCGCGGCGGCAACGGAAACTAGCCACTTCAGCCACGACGTTGTGAGGATGATCACATGCAA (double strand) [IR1 to CRP motif fragment (101 bp)]”, for which the binding entry in series [2] is on record as “binds”.
